Measured values taken from patent US20040175385A1 (University of California, published 2004).
Where two headings read alike, the source gives them in different places.

B1: S25 IgG (chimeric IgG, murine V domains, human C domains) (antibody, V domains shown)
VH: QVKLQQSGAELVRPGASVKLSCKASGYSLTSYWMNWVKQRPQGGLEWIGNIHPSDSDTRFNQKFEDKATLTVDTSSSTAYMQLSSPTSEDSAVYYCARGLYNGFWYFDVWGQGTTVTVSS
VL: DIELTQSPALMAASPGEKVIITCSVSSSISSSNLHWYQQKSGTSPKPWIYGTSNLASQVPVRFSGSGSGTSYSLTISSMEAEDAATYYCQQWSSYPLTFGAGTKLEIKR
B2: scFv S25 (scFv)
scFv: QVKLQQSGAELVRPGASVKLSCKASGYSLTSYWMNWVKQRPQGGLEWIGNIHPSDSDTRFNQKFEDKATLTVDTSSSTAYMQLSSPTSEDSAVYYCARGLYNGFWYFDVWGQGTTVTVSSGGGGSGGGGSGGGGSDIELTQSPALMAASPGEKVIITCSVSSSISSSNLHWYQQKSGTSPKPWIYGTSNLASQVPVRFSGSGSGTSYSLTISSMEAEDAATYYCQQWSSYPLTFGAGTKLEIKR
B3: scFv 1F3 (scFv)
scFv: EVQLQQSGARLVKPGASVKLSCKASGYTFTSFWMHWVKQRPGRGLEWIGRLDPNSGETKYNEKFKSKATLTVDKPSSTAYMELSSLTSEDSAVYYCAREAYGYWNFDVWGTGTTVTVSSGGGGSGGGGSGGGGSDIELTQSPASMSASPGEKVTMTCRATSSVSSSYLHWYQQKSGASPKLWIYSASNLASGVPSRFSGSGSGTSYLSTISSVEAEDAATYYCQQYIGYPYTFGGGTKLEIKR
B4: scFv C39 (scFv)
scFv: QVQLQESGGGSVKPGGSLKLSCAASGFTFSDYYMSWVRQTPEKRLEWVATISDGGSYTYYPDSVKGRFTISRDNAKNNLYLQMSSLKSEDTAIYYCVRYRYDEGLDYWGQGTTVTVSSGGGGSGGGGSGGGGSDIELTQSPASLAVSLGRRATISCRASESVDSYGHSFMHWYQQKPGQPPKLLIYLASNLESGVPARFSGSGSRTDFTLTIDPVEADDAATYYCQQNNEDPYTFGGGTKLEIKR
B5: C25 IgG (chimeric IgG, murine V domains, human C domains) (antibody, V domains shown)
VH: QVQLQESGGGLVKPGGSLKLSCAASGFTFSDYYMYWVRQTPEKRLEWVATISDGGSYTYYPDSVKGRFTISRDNAKNNLYLQMSSLKSEDTAMYYCSRYRYDDAMDYWGQGTTVTVSS
VL: DIELTQSPASLAVSLGQRATISCRASESVDSYGHSFMQWYQQKPGQPPKLLIYRASNLEPGIPARFSGSGSGTDFTLTINPVEADDVATYYCQQSNEDPFTFGSGTKLEIKR
B6: scFv 3D12 (human, immune library) (scFv)
scFv: QVQLVQSGGGVVHPGRSLKLSCAGSGFTFSDYDMHWVRQAPGKGLEWVAVMWFDGTEKYSAESVKGRFTISRDNSKNTLFLQMNSLRADDTAVYYCAREPDWLLWGDRGALDVWGQGTTVTVSSGGGGSGGGGSGGGGSDIVMTQSPSTLSASVGDRVTITCRASQSISSWLAWYQQKPGKAPKLLMYEASSLESGVPSRFSGSGSGTEFTLTISSLQPDDFAAYYCQHYNTYPYTFGQGTKLEIK
B7: scFv 2B6 (human, non-immune library, Tables 9 and 10) (scFv)
chain: VKLVESGPGLVKPSQSLSLTCTVTGYSITSDYAWNWIRQFPGNKLEWMGYINYDGSNNYNPSLKNRISITRDTSKNQFFLKLNSVTSEDTATYYCARAGDGYYVDWYFDVWGTGTTVIVSSGGGGSGGGGSGGGGSYIELTQSPASLAVSLGQRATTSCRASESVDSYGNSFMHWYQQKPGQPPKLLIYLASNLESGVPARFSGSGSRTDFTLTIDPVEADDAATYYCQQNNEDPYTFGGGTKLEIKS
B8: scFv C25 (scFv)
scFv: QVQLQESGGGLVKPGGSLKLSCAASGFTFSDYYMYWVRQTPEKRLEWVATISDGGSYTYYPDSVKGRFTISRDNAKNNLYLQMSSLKSEDTAMYYCSRYRYDDAMDYWGQGTTVTVSSGGGGSGGGGSGGGGSDIELTQSPASLAVSLGQRATISCRASESVDSYGHSFMQWYQQKPGQPPKLLIYRASNLEPGIPARFSGSGSGTDFTLTINPVEADDVATYYCQQSNEDPFTFGSGTKLEIKR
B9: 3D12 IgG (fully human IgG) (antibody, V domains shown)
VH: QVQLVQSGGGVVHPGRSLKLSCAGSGFTFSDYDMHWVRQAPGKGLEWVAVMWFDGTEKYSAESVKGRFTISRDNSKNTLFLQMNSLRADDTAVYYCAREPDWLLWGDRGALDVWGQGTTVTVSS
VL: DIVMTQSPSTLSASVGDRVTITCRASQSISSWLAWYQQKPGKAPKLLMYEASSLESGVPSRFSGSGSGTEFTLTISSLQPDDFAAYYCQHYNTYPYTFGQGTKLEIK

Key:
[1] = biological target: T1, BoNT/A HC, recombinant binding domain (C-terminal domain of the heavy chain) of botulinum neurotoxin type A (Clostridium botulinum, UniProt P0DPI0 860-1296); experiment: SPR BIAcore, IgG on chip, BoNT/A HC in flow
[2] = biological target: T1, BoNT/A HC, recombinant binding domain …; experiment: SPR BIAcore, Hc on chip, scFv in flow
[3] = biological target: T1, BoNT/A HC, recombinant binding domain …; experiment: SPR BIAcore, scFv column of Table 6
[4] = biological target: T1, BoNT/A HC, recombinant binding domain …; experiment: SPR BIAcore, HC on chip, scFv in flow
[5] = biological target: T1, BoNT/A HC, recombinant binding domain …
[6] = biological target: BoNT/A HC, recombinant binding domain (C-terminal domain of the heavy chain) of botulinum neurotoxin type A (Clostridium botulinum, UniProt P0DPI0 860-1296); experiment: SPR BIAcore, HC on chip, scFv in flow; remark: listed apart in the source

Binder | Kd [1] [nM] | koff [1] [s⁻¹] | kon [1] [M⁻¹ s⁻¹] | Kd [2] [nM] | koff [2] [s⁻¹] | kon [2] [M⁻¹ s⁻¹] | Kd [3] [nM] | koff [3] [s⁻¹] | kon [3] [M⁻¹ s⁻¹] | Kd [4] [nM] | koff [4] [s⁻¹] | kon [4] [M⁻¹ s⁻¹] | other results
B1 | 3.9 | 0.0057 | 1.46e+06 | – | – | – | – | – | – | – | – | – | –
B2 | – | – | – | 73 | 0.00082 | 11000 | 73 | 0.00081 | 11000 | 73 | 0.00082 | 11000 | –
B3 | – | – | – | 12 | 0.011 | 920000 | – | – | – | – | – | – | –
B4 | – | – | – | 2.3 | 0.00032 | 140000 | – | – | – | – | – | – | –
B5 | 1.69 | 0.00224 | 1.32e+06 | – | – | – | – | – | – | – | – | – | Kd [5]: 11 nM
B6 | – | – | – | – | – | – | 36.9 | 0.0005 | 13000 | 36.9 | 0.0005 | 13000 | –
B7 | – | – | – | – | – | – | – | – | – | – | – | – | Kd [6]: 71.5 nM; koff [6]: 0.0078 s⁻¹; kon [6]: 109000 M⁻¹ s⁻¹
B8 | – | – | – | 1.1 | 0.00033 | 300000 | 1.1 | 0.00033 | 300000 | 1.1 | 0.00033 | 300000 | –
B9 | 0.0562 | 0.000127 | 2.26e+06 | – | – | – | – | – | – | – | – | – | Kd [5]: 0.55 nM
